Reference: patent publication US20250026792A1, “SELF-ASSEMBLING PEPTIDES WITH HYALURONIC ACID BINDING DOMAINS AND METHODS OF USE THEREOF” (Northwestern University, priority 2022, published 2025)
“Also recorded” adds a separate entry of the source. Where a SMILES comes first, the peptide text is derived from it. The star is where a group is joined. Biotin = O=C1N[C@H]2[C@H](CS[C@H]2CCCCC(=O)*)N1

Legend:
[1] = Transmission electron microscopy (TEM) of peptide nanostructures; assay type: physicochemical; settings: for TEM characterization, Sodium Cacodylate Buffer (ii): 20 mM sodium cacodylate pH 7.4, 0.5% w/v; for TEM characterization, Sodium Cacodylate Buffer (ii) / TEM characterization, Phosphate Buffered Saline (i): 30 minutes sonication, 24 hrs at 37° C.; for TEM characterization, Phosphate Buffered Saline (i): PBS pH 7.4, 0.5% w/v
Procedure: The sample and stain were filter-dried in between steps. Samples were collected 24 hours at 37° C. after 30 minutes of sonication. All TEM was performed on a Philips FEI Technai Spirit G2 electron microscope. Peptides were incubated in both PBS and SC.

[2] = Circular dichroism (CD) of peptides; assay type: physicochemical; settings: 20 mM Sodium Cacodylate; for Ellipticity ratio (222 nm/208 nm) / Ellipticity 208 nm / Ellipticity 222 nm: 1.25 mg/mL; for Ellipticity 208 nm / Ellipticity 222 nm: CD data given as [θ]M×10^−3; for wavelength Minimum of CD profile: 5.0 mg/mL
Procedure: Data is presented in ellipticity ([θ]M×10^−3) as a function of spectral wavelength (λ).
Sodium cacodylate (SC), 20 mM pH 7.4, without and with 20% TFE was used to reduce phosphate related background signal and enhance detected structures. Circular dichroism (CD) data were collected in millidegrees, 0, and converted to molar ellipticity, [θ]M, and are expressed in units of deg×cm^2×dmol^−1. Scan speeds and digital integration times were 500 nm/min and 1 second, respectively. The data on the Y axis of the CD plots is [θ]M×10^−3. […] Consequently, CD signals are reported in the 190-260 nm range.

[3] = Concentration-dependent peptide binding to hyaluronic acid coating (biotin-streptavidin fluorescence); settings: for binding to hyaluronic acid with increasing concentrations of peptide (fluorescence intensity): 0-10 mg/ml peptide, PBS pH 7.4, 37° C., HA coating 10 μg/cm^2, FIG. 3; for HA binding, overall assessment: summary and discussion statements
Procedure: Peptides were incubated 24 hours at 37° C. Coatings (10 μg/cm^2) were previously dried overnight in milli-Q water. Overall significance was assessed using analysis of variance, with Tukey's multiple comparison post-hoc analysis between 1-scrm and experimental groups where n=4.
N-termini biotinylated peptides were added to coated plates at 0, 1, 2.5, 5 and 10 mg/ml overnight at 37° C. in phosphate buffered saline (PBS), pH 7.4, after which the plates were washed three times with PBS.

[4] = system: extracellular matrix (ECM) components: Collagen type I, II, III and IV, elastin, hyaluronic acid and Geltrex; assay: ECM specificity binding test, whole panel; settings: 5.0 mg/ml peptide, FIG. 4
Procedure: Peptides were incubated 24 hours at 37° C. on collagens I-IV, elastin, hyaluronic acid, and Geltrex. Coatings (10 pig/cm^2) were previously dried overnight in milli-Q water. Overall significance was assessed using analysis of variance, with Tukey's multiple comparison post-hoc analysis between ECM groups where n=4.
Hyaluronic acid, collagens I, II, III, and IV, elastin, and Geltrex were coated onto 96-well black plates (medium binding affinity) at 10 μg/cm^2 and were dried in milli-Q water at room temperature. N-termini biotinylated peptides were added to coated plates at 0, 1, 2.5, 5 and 10 mg/ml overnight at 37° C. in phosphate buffered saline (PBS), pH 7.4, after which the plates were washed three times with PBS. Fluorescent streptavidin-488 (4 μg/mL) was added to each well and incubated at 37° C. temperature for 24 hours, then thoroughly washed with PBS. The plates were read with a fluorescence microplate reader for fluorescence intensity (Ex 490 nm, Em 525 nm). All data were normalized to the background fluorescence intensity of Streptavidin-488.

In the case of `CC[C@H](C)[C@H](NC(=O)[C@H](CC(C)C)NC(=O)[C@H](CC(N)=O)NC(=O)[C@H](CC(C)C)NC(=O)[C@H](CCC(N)=O)NC(=O)[C@H](CC(C)C)NC(=O)[C@H](CCC(N)=O)NC(=O)[C@H](CC(C)C)NC(=O)[C@H](CCCCN)NC(=O)[C@H](CCCCN)NC(=O)[C@H](CCCCN)NC(=O)[C@H](CCCCN)NC(=O)[C@H](CCCCN)NC(=O)CCCC[C@@H]1SC[C@@H]2NC(=O)N[C@@H]21)C(=O)N[C@@H](CCCCN)C(=O)N[C@@H](CCCCN)C(=O)N[C@@H](CCCCN)C(=O)N[C@H](C(=O)N[C@@H](CCC(N)=O)C(=O)N[C@H](C(=O)N[C@@H](CO)C(=O)N[C@H](C(=O)N[C@H](C(=O)N[C@H](C(=O)N[C@H](C(=O)N[C@@H](CCCNC(=N)N)C(=O)N[C@@H](CCCNC(=N)N)C(=O)N[C@@H](Cc1c[nH]cn1)C(=O)O)C(C)C)C(C)C)C(C)C)C(C)C)C(C)C)C(C)C` [Peptide 1-scrm, reference compound] (Biotin-KKKKKLQLQLNLIKKKVQVSVVVVRRH-OH), the “TEM characterization, Sodium Cacodylate Buffer (ii)” value (“TEM characterization … (ii)” below) [1] was “No structure or fibrils”.

For `CC[C@H](C)[C@H](NC(=O)[C@H](CCCCN)NC(=O)[C@H](CCC(N)=O)NC(=O)[C@H](CCCCN)NC(=O)[C@H](CC(C)C)NC(=O)CCCC[C@@H]1SC[C@@H]2NC(=O)N[C@@H]21)C(=O)N[C@@H](CCCCN)C(=O)N[C@@H](Cc1c[nH]cn1)C(=O)N[C@H](C(=O)N[C@H](C(=O)N[C@@H](CCCCN)C(=O)N[C@@H](CC(C)C)C(=O)N[C@@H](CCCCN)C(=O)N[C@H](C(=O)N[C@H](C(=O)N[C@H](C(=O)N[C@@H](CCCCN)C(=O)N[C@@H](CC(C)C)C(=O)N[C@@H](CCCNC(=N)N)C(=O)N[C@@H](CO)C(=O)N[C@@H](CCC(N)=O)C(=O)N[C@@H](CC(C)C)C(=O)N[C@H](C(=O)N[C@@H](CCCCN)C(=O)N[C@@H](CCCNC(=N)N)C(=O)N[C@@H](CCCCN)C(=O)N[C@@H](CCC(N)=O)C(=O)N[C@@H](CC(N)=O)C(=O)O)C(C)C)C(C)C)C(C)C)C(C)C)C(C)C)C(C)C` [mPEP35, reference compound] (Biotin-LKQKIKHVVKLKVVVKLRSQLVKRKQN-OH), the “TEM characterization … (ii)” value [1] was “no fibers or structure can be observed; also recorded: No structure or fibrils”.

With “ASNLTKAAKSLKVRVIKKTKQKQVLKVL [2nd de novo, five B(X7)B domains]” the “TEM characterization, Phosphate Buffered Saline (i)” value (shortened to “TEM characterization … (i)”) [1] was “Structure, but no discernible striations”, the “Ellipticity ratio (222 nm/208 nm)” value [2] was 0.42 and the “Ellipticity 208 nm” value [2] was −115. The “Ellipticity 222 nm” value [2] was −48.5, the “wavelength Minimum of CD profile” value [2] was 224-225 nm and the “Ellipticity ratio (222 nm/208 nm)” value ([2]; 20% TFE) was 0.90. The “Ellipticity 208 nm” value ([2]; 20% TFE) was −371, the “Ellipticity 222 nm” value ([2]; 20% TFE) was −333 and the “wavelength Minimum of CD profile” value ([2]; 20% TFE) was 221-222 nm.

With “LKLKSSHSIKLKVKSKQRSALVSRQKA [Peptide 6b, mPEP35 variant]” the “TEM characterization … (i)” value [1] was “Structure with striations”, the “wavelength Minimum of CD profile” value [2] was 227 nm and the “Ellipticity ratio (222 nm/208 nm)” value ([2]; 20% TFE) was 0.87. The “Ellipticity 208 nm” value ([2]; 20% TFE) was −229, the “Ellipticity 222 nm” value ([2]; 20% TFE) was −199 and the “wavelength Minimum of CD profile” value ([2]; 20% TFE) was 224 nm.

With “TKSKIKIVVKSKAKKLRLALVKRIKI [Peptide 6f-2, modification of mPEP35]” the “TEM characterization … (i)” value [1] was “Structure, but no discernible striations”, the “Ellipticity ratio (222 nm/208 nm)” value [2] was 0.52 and the “Ellipticity 208 nm” value [2] was −97.6. For the same molecule, the “Ellipticity 222 nm” value [2] was −50.6, the “wavelength Minimum of CD profile” value [2] was 221 nm and the “Ellipticity ratio (222 nm/208 nm)” value ([2]; 20% TFE) was 0.84. For the same molecule, the “Ellipticity 208 nm” value ([2]; 20% TFE) was −306, the “Ellipticity 222 nm” value ([2]; 20% TFE) was −257 and the “wavelength Minimum of CD profile” value ([2]; 20% TFE) was 221 nm. For the same molecule, the “binding to hyaluronic acid with increasing concentrations of peptide (fluorescence intensity)” value [3] was “no different than the negative reference peptide”.

In the case of “TKTKIKIIVKLKSKAKLRIKLVKRHKS [Peptide 8h-2, modification of mPEP35]”, the “TEM characterization … (ii)” value [1] was “No discernible structure”, the “TEM characterization … (i)” value [1] was “No discernible structure” and the “Ellipticity ratio (222 nm/208 nm)” value [2] was 0.42. For the same molecule, the “Ellipticity 208 nm” value [2] was −135, the “Ellipticity 222 nm” value [2] was −57.3 and the “wavelength Minimum of CD profile” value [2] was 224 nm. For the same molecule, the “Ellipticity ratio (222 nm/208 nm)” value ([2]; 20% TFE) was 0.88, the “Ellipticity 208 nm” value ([2]; 20% TFE) was −283 and the “Ellipticity 222 nm” value ([2]; 20% TFE) was −249. For the same molecule, the “wavelength Minimum of CD profile” value ([2]; 20% TFE) was 222-224 nm and the “HA binding, overall assessment” value [3] was “proficient and specific binders”.

In the case of “TQLRNKYTFLARARNALAVRTKQNIKS [BHP3, designed from 42 residue peptide BH-P]”, the “TEM characterization … (i)” value [1] was “form fibers with many striations that form larger fibers and the larger fibers tend to form a mesh network”, the “nanofiber formation in TEM, overall” value ([1]; both PBS and sodium cacodylate) was “consistent nanofibers; also recorded: predominantly form fibers with striations and furthermore form a mesh network” and the “Ellipticity ratio (222 nm/208 nm)” value [2] was 0.79. For the same molecule, the “Ellipticity 208 nm” value [2] was −88.4, the “Ellipticity 222 nm” value [2] was −70.1 and the “wavelength Minimum of CD profile” value [2] was 226 nm. The “wavelength Minimum of CD profile” value ([2]; 20% TFE) was 226 nm, the “binding to the ECMs (for 17x-3: the ECMs other than hyaluronic acid)” value [4] was “did not show significant binding” and the “binding to hyaluronic acid with increasing concentrations of peptide (fluorescence intensity)” value [3] was “increases dramatically”. For the same molecule, the “binding to hyaluronic acid” value ([3]; 10 mg/ml peptide) was “bound significantly”, the “peptide concentrations at which increased binding to hyaluronic acid is shown” value ([3]; FIG. 3) was 10 mg/mL and the “HA binding, overall assessment” value [3] was “HA specific and robust binders”.
